Like-named read-outs stand apart in the source and are kept apart here. Numbered stars: 1 amine (or outer) side, 2 acyl side, 3 side chain; on linkers, the order of the positions; unused ones are H or OH. Bridge positions count the residues as written; N and C are the ends. Square brackets hold non-standard residues; d marks the D form. Ends that are not written are not given here. KCOpipzaa = N6-(4-(carboxymethyl)piperazine-1-carbonyl)-L-lysine, O=C(NCCCC[C@H](N[*:1])C(=O)[*:2])N1CCN(CC(=O)[*:3])CC1; 3Pal(6-Ph) = N[C@@H](Cc1ccc(-c2ccccc2)nc1)C(=O)O; Phe(4-COOH) = N[C@@H](Cc1ccc(C(=O)O)cc1)C(=O)O; NMePhe(4-Me) = CN[C@@H](Cc1ccc(C)cc1)C(=O)O; Bip = N[C@@H](Cc1ccc(-c2ccccc2)cc1)C(=O)O; Phe(4-F) = N[C@@H](Cc1ccc(F)cc1)C(=O)O; Pro(4,4-F2) = O=C(O)[C@@H]1CC(F)(F)CN1; Ala(4-THP) = N[C@@H](CC1CCOCC1)C(=O)O; cisHyp = O=C(O)[C@@H]1C[C@H](O)CN1; NMeF = CN[C@@H](Cc1ccccc1)C(=O)O; Aad = N[C@@H](CCCC(=O)O)C(=O)O; Cha = N[C@@H](CC1CCCCC1)C(=O)O; Chg = N[C@H](C(=O)O)C1CCCCC1; βAla = NCCC(=O)O

Test [1] concerns the target T1, BMP4 (Homo sapiens, UniProt P12644).
T1 sequence (P12644 293-408): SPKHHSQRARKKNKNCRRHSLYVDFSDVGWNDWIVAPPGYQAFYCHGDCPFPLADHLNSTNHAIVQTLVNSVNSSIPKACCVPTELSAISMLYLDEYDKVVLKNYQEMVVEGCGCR
Nature of the test: BMP4 signal transduction inhibitory activity: SMAD1 phosphorylation by BMP4 stimulus, AlphaLISA SureFire, A549 cells. The following applies: for aLISA BMP4 (0.2 nM) % inh: peptide conc. in assay 0.2, 2, 20 nM. In kind it is cell-based. In general terms: In Alpha technology, singlet oxygen from a donor bead excites a nearby acceptor bead.

Test [2] concerns the target T2, BMP7 (Homo sapiens, UniProt P18075).
T2 sequence (P18075 293-431): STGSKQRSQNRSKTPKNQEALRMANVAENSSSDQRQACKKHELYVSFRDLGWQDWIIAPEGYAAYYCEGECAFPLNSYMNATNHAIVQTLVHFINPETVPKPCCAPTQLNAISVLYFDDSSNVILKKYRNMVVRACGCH
Kind of test: BMP7 signal transduction inhibitory activity: SMAD1 phosphorylation by BMP7 stimulus, A549 cells. In kind it is cell-based. The conditions noted are these: for aLISA BMP7 (10 nM) % inh: peptide conc. in assay 1, 10, 100 nM; for aLISA BMP7: A549 cells. The method, boiled down:
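SMAD1 phosphorylation readout in A549 cells stimulated with BMP7 (10 nM). Peptides were tested at three levels (e.g. 1/10/100, 10/100/1,000, 100/300/1,000, 10/30/90 nM) or at eight points, 1/3 steps, from 100 or 1,000 nM. Recombinant Noggin served as positive control at matching concentrations.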

Test [3] deals with T3, BMP7 (UniProt P18075 293-431).
T3 sequence (looked up): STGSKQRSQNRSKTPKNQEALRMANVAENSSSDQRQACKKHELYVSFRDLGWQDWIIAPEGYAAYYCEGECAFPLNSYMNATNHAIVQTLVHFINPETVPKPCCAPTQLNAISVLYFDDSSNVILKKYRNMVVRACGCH
Nature of the test: cell-based or functional assay.

The next test addresses T4, BMP5 (UniProt P22003 317-454, limits assumed).
T4 sequence (looked up): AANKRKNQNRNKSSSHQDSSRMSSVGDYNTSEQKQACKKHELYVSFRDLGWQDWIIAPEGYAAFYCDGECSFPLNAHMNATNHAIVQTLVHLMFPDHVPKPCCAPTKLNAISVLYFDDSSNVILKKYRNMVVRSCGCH
Kind of test: cell-based or functional assay.

The target of another test is T5, BMP6 (UniProt P22004 382-513, limits assumed).
T5 sequence (looked up): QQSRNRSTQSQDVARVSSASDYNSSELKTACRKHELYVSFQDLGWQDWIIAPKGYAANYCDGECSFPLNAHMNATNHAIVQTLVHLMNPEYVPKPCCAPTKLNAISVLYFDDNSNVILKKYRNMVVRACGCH
Nature of the test: cell-based or functional assay.

The target of test [4] is T6, BMP4 (UniProt P12644 293-408).
T6 sequence (looked up): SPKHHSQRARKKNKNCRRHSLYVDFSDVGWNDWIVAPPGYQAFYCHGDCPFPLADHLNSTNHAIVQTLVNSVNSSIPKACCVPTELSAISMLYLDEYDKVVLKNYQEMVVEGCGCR
Kind of test: cell-based or functional assay.

Test [5] deals with T3, BMP7. Kind of test: cell-based or functional assay. The source holds these as a separate data set.
Setting [6] is: SMAD1 phosphorylation, BMP4 0.2 nM.
Setting [7] is: SMAD1 phosphorylation, BMP7 10 nM.
[8] abbreviates: inhibition of SMAD1 phosphorylation by BMP4 stimulus, A549 cells, peptides of Synthesis 2, classes A-C, ND.
[9] abbreviates: inhibition of SMAD1 phosphorylation by BMP7 stimulus, peptides of Synthesis 2, classes A-D, ND.

As to “361 (FG[NMeF]G[Bip]GDE[Cha]A[NMeF]L[Phe(4-COOH)]CG-NH2; not fully specified (N-terminus, bridges)) [compound 361]”, in the test with BMP4 [1] (setting [6]), the “aLISA BMP4 (0.2 nM) % inh” value was “ND (the inhibitory activity was less than 30% at the maximum concentration evaluated)”. In addition, the “aLISA BMP7 (10 nM) % inh” value in the test with BMP7 [2] (setting [7]) is “D (showed less than 30% of inhibitory activity in 10 nM-addition zone and showed 30% or more of inhibitory activity in 100 nM-addition zone)”.

As for “410 (FG[NMeF]G[3Pal(6-Ph)]GDE[Cha][Aad][NMeF]L[Phe(4-COOH)]C-NH2; not fully specified) [compound 410]”, the “aLISA BMP4 (0.2 nM) % inh” value with BMP4 [1] (BMP4 0.2 nM stimulus) is recorded as “ND (the inhibitory activity was less than 30% at the maximum concentration evaluated)”. For the same molecule, in the test with BMP7 [2] (BMP7 10 nM stimulus), the “aLISA BMP7 (10 nM) % inh” value is “D (showed less than 30% of inhibitory activity in 10 nM-addition zone and showed 30% or more of inhibitory activity in 100 nM-addition zone)”.

“394 (FG[NMeF]G[Bip]GDD[Cha]A[NMePhe(4-Me)]LHCG-NH2; not fully specified) [compound 394]”: the “aLISA BMP4 (0.2 nM) % inh” value with BMP4 [1] (BMP4 0.2 nM stimulus) is on record as “ND (the inhibitory activity was less than 30% at the maximum concentration evaluated)”. Moreover, in the test with BMP7 [2] (BMP7 10 nM stimulus), the “aLISA BMP7 (10 nM) % inh” value is “D (showed less than 30% of inhibitory activity in 10 nM-addition zone and showed 30% or more of inhibitory activity in 100 nM-addition zone)”.

With “38 ({CH2CO}-A[KCOpipzaa]VYVDK[Bip]PYP[Bip]Y[Phe(4-COOH)][Phe(4-COOH)]SCG-NH2; thioether N-17; not fully specified) [compound 38]”, in the test with BMP4 [1] (A549 cells, SMAD1 phosphorylation, peptides of Synthesis 2, peptide 0.02, 0.2, 2 nM), the “aLISA BMP4” value is given as “A (showed an inhibitory activity of 50% or more in a zone to which the peptide was added to in an amount of 0.2 nM)”. Also, in the test with BMP7 [2] (10 nM BMP7, peptides of Synthesis 2, peptide 1, 10, 100 nM), the “aLISA BMP7” value was “ND (the inhibitory activity was less than 30% at the maximum concentration evaluated)”.

With “125 ({CH2CO}-E[Aad]VYVDR[Bip]PYV[Bip]Y[Phe(4-COOH)][Phe(4-COOH)]SCG-NH2; thioether N-17; not fully specified) [compound 125]”, in the test with BMP4 [1] (inhibition of SMAD1 phosphorylation by BMP4 stimulus, A549 cells, peptides of Synthesis 1, classes D-F, ND), the “aLISA BMP4” value was “E (showed less than 50% of inhibitory activity in 0.2 nM-addition zone and showed 50% or more of inhibitory activity in 2 nM-addition zone)”. For the same molecule, the “aLISA BMP7” value with BMP7 [2] (inhibition of SMAD1 phosphorylation by BMP7 stimulus, peptides of Synthesis 1, classes E, F, ND) was “E (showed 50% or more of inhibitory activity in a zone to which the peptide was added in an amount of 10 nM)”.

In the case of “406 (FG[NMeF]G[Bip]GDE[Cha]Q[NMeF]L[Phe(4-COOH)]C[βAla]) [compound 406]”, the “aLISA BMP4 (0.2 nM) % inh” value with BMP4 [1] (BMP4 0.2 nM stimulus) is “ND (the inhibitory activity was less than 30% at the maximum concentration evaluated)”. For the same molecule, in the test with BMP7 [2] (BMP7 10 nM stimulus), the “aLISA BMP7 (10 nM) % inh” value was “D (showed less than 30% of inhibitory activity in 10 nM-addition zone and showed 30% or more of inhibitory activity in 100 nM-addition zone)”.

Regarding “347 (FG[NMeF]G[Bip]GDD[Cha]A[NMeF][Chg]HCG-NH2; not fully specified (N-terminus, bridges)) [compound 347]”, in the test with BMP4 [1] (setting [6]), the “aLISA BMP4 (0.2 nM) % inh” value is “ND (the inhibitory activity was less than 30% at the maximum concentration evaluated)”. Besides, in the test with BMP7 [2] (setting [7]), the “aLISA BMP7 (10 nM) % inh” value was “D (showed less than 30% of inhibitory activity in 10 nM-addition zone and showed 30% or more of inhibitory activity in 100 nM-addition zone)”.

In the case of “79 ({CH2CO}-E[KCOpipzaa]VYVDR[Bip][KCOpipzaa]YP[Bip][Phe(4-F)][Phe(4-COOH)][Phe(4-COOH)]SCG-NH2; thioether N-17; not fully specified) [compound 79]”, the “aLISA BMP4” value with BMP4 [1] (setting [8]) was “C (showed an inhibitory activity of less than 50% in 0.2 nM-addition zone and showed an inhibitory activity of 50% or more in 2 nM-addition zone were defined as B or C)”. The “aLISA BMP7” value with BMP7 [2] (setting [9]) is listed as “D (showed less than 50% of inhibitory activity in 100 nM-addition zone)”.

For the molecule “412 ([Phe(4-F)]G[NMeF]G[3Pal(6-Ph)]GDE[Cha][Aad][NMePhe(4-Me)]L[Phe(4-COOH)]C-NH2; not fully specified) [compound 412]”, the “aLISA BMP4 (0.2 nM) % inh” value in the test with BMP4 [1] (BMP4 0.2 nM stimulus) is “ND (the inhibitory activity was less than 30% at the maximum concentration evaluated)”. In addition, in the test with BMP7 [2] (BMP7 10 nM stimulus), the “aLISA BMP7 (10 nM) % inh” value was “D (showed less than 30% of inhibitory activity in 10 nM-addition zone and showed 30% or more of inhibitory activity in 100 nM-addition zone)”.

On to “111 ({CH2CO}-ERVYVDR[Bip]PY[Pro(4,4-F2)][Bip]Y[Phe(4-COOH)][Phe(4-COOH)]SC[βAla][dE]-OH; thioether N-17; not fully specified) [compound 111]”, for which the “aLISA BMP4” value with BMP4 [1] (setting [8]) was “A (showed an inhibitory activity of 50% or more in a zone to which the peptide was added to in an amount of 0.2 nM)”. Also, the “aLISA BMP7” value with BMP7 [2] (setting [9]) is “C (showed less than 50% of inhibitory activity in 10 nM-addition zone and showed 50% or more of inhibitory activity in 100 nM-addition zone)”.

B1: Noggin: recombinant Human Noggin Protein (R&D), positive control; secreted protein that has BMP inhibitory activity (protein)
chain: QHYLHIRPAPSDNLPLVDLIEHPDPIFDPKEKDLNETLLRSLLGGHYDPGFMATSPPEDRPGGGGGAAGGAEDLAELDQLLRQRPSGAMPSEIKGLEFSEGLAQGKKQRLSKKLRRKLQMWLWSQTFCPVLYAWNDLGSRFWPRYVKVGSCFSKRSCSVPEGMVCKPSKSVHLTVLRWRCQRRGGQRCGWIPIQYPIISECKCSC
The term IC50 denotes the concentration that gives 50% inhibition. For the molecule B1, the IC50 with BMP4 [1] (Table 2-2, 277 from 20 nM (1/3), 417 from 300 nM (1/4), ND = IC50 was not calculated) was 0.13 nM; in the test with BMP4 [1] (Table 2, eight concentrations, ratio 1/3 from 2 nM, A549 cells), 0.08 nM; in the test with BMP7 [2] (Table 2-2, 277 from 1,000 nM (1/3), 417 from 300 nM (1/4)) it was 5.74 nM; with BMP7 [2] (Table 2, eight concentrations, ratio 1/3 from 100 nM, ND = IC50 was not calculated in the evaluation systems), 2.7 nM.

Turning to {CH2CO}-[Phe(4-F)]G[NMeF]G[3Pal(6-Ph)]GDE[Cha][Aad][NMePhe(4-Me)]L[cisHyp]C[βAla][dE]-OH (thioether N-14 (inferred)) [BMP7 signal transduction inhibition peptide SEQ ID NO: 417 (Example 6)], in the test with BMP7 [3], the “IC50 (nM), SMAD1 phosphorylation in A549 cells” value (“IC50 (nM), SMAD1 phosphorylation” below) was 15.6 nM. Moreover, the “IC50, SMAD1 phosphorylation, BMP5 2 nM” value with BMP5 stood at 19.3 nM. The “IC50, SMAD1 phosphorylation, BMP6 3 nM” value with BMP6 worked out at 28.7 nM.

With {CH2CO}-ERV[Phe(4-COOH)][Ala(4-THP)][KCOpipzaa]R[Bip]PYP[Bip]Y[Phe(4-COOH)][Phe(4-COOH)]SC[βAla][dE]-OH (thioether N-17 (inferred)) [BMP4 signal transduction inhibition peptide No. 181], the figures for the “IC50 (nM), SMAD1 phosphorylation” value in the test with BMP4 [4] and in the test with BMP7 [5] were 0.052 nM and 1.6 nM, respectively.

Turning to {CH2CO}-ERVYVDR[3Pal(6-Ph)]SYV[Bip]Y[Phe(4-COOH)][Phe(4-COOH)]SCG-NH2 (thioether N-17 (inferred)) [BMP4 signal transduction inhibition peptide No. 87 (SEQ ID NO: 87)], the “IC50 (nM), SMAD1 phosphorylation” value with BMP4 [4] was 0.08 nM.

The record behind these values is patent US20250361274A1, “PEPTIDE AND PEPTIDE-CONTAINING AGENT” (PEPTIDREAM INC., priority 2022, published 2025).
